This passage reports abundance fitness results from the Human Domainome abundance scans (Beltran et al. 2025).

± gives the uncertainty stated by the source.

B1: Chromodomain-helicase-DNA-binding protein 5, residues 338 to 390; numbered along this chain, Q8TDI0 (parent)
chain: YETDHQDYCEVCQQGGEIILCDTCPRAYHLVCLDPELEKAPEGKWSCPHCEKE

The series covers variants of B1. In words: abundance fitness (aPCA) (normalised: wild type 0, dead -1); higher = more abundant; growth selection in yeast, the domain comes from the species named. The conditions noted are these: Homo sapiens.
Consider Y1E, for which the abundance fitness came out at 0.321 ± 0.3.

For Y1D, the abundance fitness was -0.839 ± 0.33.

Y1W: the abundance fitness turned out to be 0.122 ± 0.23.

On to Y1C, for which the abundance fitness is 0.245 ± 0.22.

With Y1N, the abundance fitness is -0.336 ± 0.39.

Consider Y1G, for which the abundance fitness amounted to 0.239 ± 0.27.

For the variant Y1V, the abundance fitness turned out to be 0.159 ± 0.36.

With E51Y, the abundance fitness is -0.207 ± 0.21.

As to E51I, the abundance fitness is -0.387 ± 0.16.

For the variant E51K, the abundance fitness was found to be 0.031 ± 0.2.

Regarding E51V, the abundance fitness was -0.209 ± 0.099.

In the case of E51W, the abundance fitness is -0.25 ± 0.18.

As to E51H, the abundance fitness was -0.367 ± 0.23.

W45Q: the abundance fitness was -0.29 ± 0.17.

Regarding W45C, the abundance fitness was found to be 0.157 ± 0.14.

W45L: the abundance fitness is -0.157 ± 0.12.

With W45E, the abundance fitness was -0.202 ± 0.14.

Turning to W45T, the abundance fitness was -0.393 ± 0.16.

In the case of W45M, the abundance fitness was 0.115 ± 0.17.

With P48T, the abundance fitness is -0.006 ± 0.15.

As for P48H, the abundance fitness is -0.484 ± 0.23.

As for G15R, the abundance fitness stood at 0.141 ± 0.09.

In the case of G15C, the abundance fitness amounted to 0.021 ± 0.14.

Turning to G15A, the abundance fitness stood at 0.176 ± 0.13.

Take G15T: the abundance fitness is -0.014 ± 0.14.

Take G15E: the abundance fitness is -0.112 ± 0.16.

On to G15W, for which the abundance fitness is -0.136 ± 0.14.

With Q13R, the abundance fitness amounted to 0.163 ± 0.085.

Consider Q13E, for which the abundance fitness was -0.091 ± 0.14.

For the variant Q13V, the abundance fitness turned out to be 0.056 ± 0.096.

As to Q13S, the abundance fitness amounted to 0.157 ± 0.094.

For the variant Q13P, the abundance fitness was -0.097 ± 0.14.

For the variant Q13W, the abundance fitness was -0.104 ± 0.1.

Turning to Q13K, the abundance fitness was -0.233 ± 0.15.

Consider Q13T, for which the abundance fitness was -0.185 ± 0.11.

For the variant K52A, the abundance fitness was -0.182 ± 0.13.

On to K52S, for which the abundance fitness is -0.115 ± 0.14.

On to K52G, for which the abundance fitness was found to be 0.028 ± 0.099.

In the case of K52N, the abundance fitness is -0.378 ± 0.29.

On to K52I, for which the abundance fitness was -1.1 ± 0.42.

Take K52Q: the abundance fitness is -0.482 ± 0.2.

For the variant V11H, the abundance fitness was 0.691 ± 0.15.

For V11S, the abundance fitness worked out at 0.27 ± 0.09.

As to V11M, the abundance fitness turned out to be 0.459 ± 0.11.

As to V11A, the abundance fitness came out at 0.095 ± 0.1.

As to V11K, the abundance fitness worked out at 0.481 ± 0.13.

As to V11E, the abundance fitness was determined as 0.397 ± 0.1.

On to Y28P, for which the abundance fitness is -0.85 ± 0.22.

Regarding Y28V, the abundance fitness stood at 0.054 ± 0.12.

Consider Y28Q, for which the abundance fitness is -0.709 ± 0.19.

With Y28S, the abundance fitness is -0.075 ± 0.12.

With Y28G, the abundance fitness was -0.125 ± 0.092.

Consider Y28M, for which the abundance fitness is -0.148 ± 0.16.

I18C: the abundance fitness was -0.508 ± 0.15.

I18M: the abundance fitness amounted to 0.007 ± 0.14.

I18Y: the abundance fitness came to 0.145 ± 0.18.

Consider I18K, for which the abundance fitness was determined as 0.137 ± 0.22.

As to I18L, the abundance fitness is -0.098 ± 0.1.

Turning to I18S, the abundance fitness was determined as 0.065 ± 0.11.

Consider I18N, for which the abundance fitness was 0.039 ± 0.22.

As to I18G, the abundance fitness came to 0.047 ± 0.097.

Regarding I18H, the abundance fitness turned out to be 0.03 ± 0.18.

On to I18P, for which the abundance fitness is -0.228 ± 0.17.

For the variant G16L, the abundance fitness was determined as 0.239 ± 0.11.

Regarding G16T, the abundance fitness turned out to be 0.265 ± 0.13.

As to G16V, the abundance fitness is -0.17 ± 0.1.

With G16R, the abundance fitness is 0.098 ± 0.1.

D22L: the abundance fitness is -0.059 ± 0.12.

Consider D22C, for which the abundance fitness is -0.432 ± 0.15.

With D22Y, the abundance fitness worked out at 0.088 ± 0.21.

For the variant D22E, the abundance fitness is -0.101 ± 0.2.

For the variant D22P, the abundance fitness is 0.111 ± 0.13.

For the variant C12V, the abundance fitness is -0.759 ± 0.11.

On to C12M, for which the abundance fitness is -0.671 ± 0.13.

For C12W, the abundance fitness is -1.02 ± 0.16.

Take C12K: the abundance fitness was -0.652 ± 0.13.

With C12F, the abundance fitness is -0.788 ± 0.15.

Regarding C12L, the abundance fitness is -0.901 ± 0.1.

Regarding C12S, the abundance fitness is -1.04 ± 0.13.

As for E38K, the abundance fitness is -0.199 ± 0.22.

Turning to E38W, the abundance fitness was -0.127 ± 0.15.

Take E38Q: the abundance fitness was -0.008 ± 0.15.

As for E38C, the abundance fitness was -0.221 ± 0.17.

Turning to E38L, the abundance fitness was -0.115 ± 0.13.

Regarding E38P, the abundance fitness worked out at 0.188 ± 0.15.

In the case of P25M, the abundance fitness was -0.167 ± 0.2.

In the case of P25T, the abundance fitness turned out to be 0.057 ± 0.16.

Turning to P25K, the abundance fitness amounted to 0.109 ± 0.21.

Turning to P25I, the abundance fitness was determined as 0.064 ± 0.24.

For the variant P25E, the abundance fitness was -0.287 ± 0.21.

P25S: the abundance fitness is -0.1 ± 0.14.

P25C: the abundance fitness is -0.278 ± 0.3.

In the case of C47A, the abundance fitness was -0.841 ± 0.15.

C47Q: the abundance fitness is -0.918 ± 0.2.

For the variant C47I, the abundance fitness is -0.95 ± 0.38.

For the variant C47P, the abundance fitness is -0.96 ± 0.2.

Turning to C47N, the abundance fitness is -0.953 ± 0.35.

As for C47K, the abundance fitness is -0.599 ± 0.22.

Consider C24N, for which the abundance fitness is -1.15 ± 0.48.

Take C24P: the abundance fitness was -0.437 ± 0.34.

Take C24Q: the abundance fitness was -0.879 ± 0.21.

Take C24F: the abundance fitness was -0.567 ± 0.29.

With C24I, the abundance fitness is -0.88 ± 0.35.

As to R26D, the abundance fitness is -0.296 ± 0.16.

In the case of R26A, the abundance fitness was 0.009 ± 0.13.

Take R26C: the abundance fitness is 0.012 ± 0.15.

With R26W, the abundance fitness was -0.18 ± 0.14.

In the case of R26Y, the abundance fitness was -0.144 ± 0.19.

In the case of R26H, the abundance fitness turned out to be 0.493 ± 0.19.

As for R26L, the abundance fitness was found to be 0.154 ± 0.12.

With L37Y, the abundance fitness is -0.237 ± 0.26.

As for L37N, the abundance fitness is -0.102 ± 0.31.

L37F: the abundance fitness is -0.147 ± 0.35.

D34H: the abundance fitness came to 0.039 ± 0.18.

Take D34Q: the abundance fitness was -0.098 ± 0.17.

For the variant D34I, the abundance fitness is -0.313 ± 0.24.

As to D34M, the abundance fitness was -0.403 ± 0.19.

D34C: the abundance fitness is -0.161 ± 0.18.

Turning to D34R, the abundance fitness is -0.125 ± 0.11.

Turning to D34G, the abundance fitness was -0.167 ± 0.13.

On to C21R, for which the abundance fitness is -0.929 ± 0.14.

With C21G, the abundance fitness was -0.853 ± 0.11.

As to C21M, the abundance fitness is -0.701 ± 0.18.

With C21N, the abundance fitness was -0.889 ± 0.27.

As for C21D, the abundance fitness was -0.921 ± 0.17.

Consider C21L, for which the abundance fitness was -0.872 ± 0.15.

Regarding C21I, the abundance fitness is -0.912 ± 0.35.

For T23M, the abundance fitness amounted to 0.114 ± 0.17.

For the variant T23H, the abundance fitness was -0.397 ± 0.23.

Turning to T23R, the abundance fitness was -0.12 ± 0.12.

T23E: the abundance fitness is 0.026 ± 0.17.

As for T23Y, the abundance fitness is -0.161 ± 0.19.

For T23A, the abundance fitness is -0.545 ± 0.13.

Consider T23S, for which the abundance fitness is -0.01 ± 0.12.

Regarding T23D, the abundance fitness is -0.09 ± 0.17.

As to T23N, the abundance fitness worked out at 0.034 ± 0.17.

As for G43Q, the abundance fitness was -0.074 ± 0.15.

Turning to G43P, the abundance fitness is 0.032 ± 0.12.

G43D: the abundance fitness was 0.044 ± 0.14.

Consider G43C, for which the abundance fitness is -0.117 ± 0.12.

Regarding G43S, the abundance fitness turned out to be 0.087 ± 0.1.

With G43E, the abundance fitness amounted to 0.029 ± 0.15.

Consider G43M, for which the abundance fitness is -0.088 ± 0.17.

On to C9H, for which the abundance fitness is -0.397 ± 0.23.

C9W: the abundance fitness is -1.08 ± 0.18.

As to C9Y, the abundance fitness was -0.489 ± 0.12.

In the case of C9D, the abundance fitness was -0.618 ± 0.21.

On to C9A, for which the abundance fitness is -0.726 ± 0.12.

C9Q: the abundance fitness was -1.04 ± 0.27.

Consider C9V, for which the abundance fitness is -1.07 ± 0.15.

On to C9L, for which the abundance fitness was -0.844 ± 0.13.

In the case of C9R, the abundance fitness was -0.752 ± 0.12.

As for D4K, the abundance fitness came out at 0.073 ± 0.18.

Regarding D4I, the abundance fitness came to 0.03 ± 0.15.

For the variant D4A, the abundance fitness stood at 0.244 ± 0.099.

As for D4C, the abundance fitness is 0.128 ± 0.14.

D4V: the abundance fitness came to 0.117 ± 0.089.

In the case of D4E, the abundance fitness is 0.081 ± 0.11.

For D4H, the abundance fitness is -0.056 ± 0.16.

In the case of C32P, the abundance fitness is -0.885 ± 0.2.

Consider C32D, for which the abundance fitness is -0.806 ± 0.27.

Take C32A: the abundance fitness is -1 ± 0.18.

Turning to C32Y, the abundance fitness is -0.777 ± 0.15.

As for C32G, the abundance fitness was -0.969 ± 0.14.

As for C32T, the abundance fitness is -1.02 ± 0.2.

Take H29A: the abundance fitness was -0.5 ± 0.12.

For H29T, the abundance fitness is -0.986 ± 0.2.
